Experimental data published in IntAct's records for PubMed 35512704.

B1: Speckle-type POZ protein (Homo sapiens), O43791 (parent)
chain: MSRVPSPPPPAEMSSGPVAESWCYTQIKVVKFSYMWTINNFSFCREEMGEVIKSSTFSSGANDKLKWCLRVNPKGLDEESKDYLSLYLLLVSCPKSEVRAKFKFSILNAKGEETKAMESQRAYRFVQGKDWGFKKFIRRDFLLDEANGLLPDDKLTLFCEVSVVQDSVNISGQNTMNMVKVPECRLADELGGLWENSRFTDCCLCVAGQEFQAHKAILAARSPVFSAMFEHEMEESKKNRVEINDVEPEVFKEMMCFIYTGKAPNLDKMADDLLAAADKYALERLKVMCEDALCSNLSVENAAEILILADLHSADQLKTQAVDFINYHASDVLETSGWKSMVVSHPHLVAEAYRSLASAQCPFLGPPRKRLKQS
partner: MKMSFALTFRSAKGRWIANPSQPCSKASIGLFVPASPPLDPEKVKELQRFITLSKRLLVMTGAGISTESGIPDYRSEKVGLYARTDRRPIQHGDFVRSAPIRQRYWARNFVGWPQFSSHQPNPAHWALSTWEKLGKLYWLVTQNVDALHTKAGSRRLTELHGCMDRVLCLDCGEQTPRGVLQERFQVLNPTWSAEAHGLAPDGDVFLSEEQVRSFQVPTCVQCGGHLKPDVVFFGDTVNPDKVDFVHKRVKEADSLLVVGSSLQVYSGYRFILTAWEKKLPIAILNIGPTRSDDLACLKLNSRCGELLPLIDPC
B2: Speckle-type POZ protein (Homo sapiens), O43791 (parent)
chain: B1 chain
partner: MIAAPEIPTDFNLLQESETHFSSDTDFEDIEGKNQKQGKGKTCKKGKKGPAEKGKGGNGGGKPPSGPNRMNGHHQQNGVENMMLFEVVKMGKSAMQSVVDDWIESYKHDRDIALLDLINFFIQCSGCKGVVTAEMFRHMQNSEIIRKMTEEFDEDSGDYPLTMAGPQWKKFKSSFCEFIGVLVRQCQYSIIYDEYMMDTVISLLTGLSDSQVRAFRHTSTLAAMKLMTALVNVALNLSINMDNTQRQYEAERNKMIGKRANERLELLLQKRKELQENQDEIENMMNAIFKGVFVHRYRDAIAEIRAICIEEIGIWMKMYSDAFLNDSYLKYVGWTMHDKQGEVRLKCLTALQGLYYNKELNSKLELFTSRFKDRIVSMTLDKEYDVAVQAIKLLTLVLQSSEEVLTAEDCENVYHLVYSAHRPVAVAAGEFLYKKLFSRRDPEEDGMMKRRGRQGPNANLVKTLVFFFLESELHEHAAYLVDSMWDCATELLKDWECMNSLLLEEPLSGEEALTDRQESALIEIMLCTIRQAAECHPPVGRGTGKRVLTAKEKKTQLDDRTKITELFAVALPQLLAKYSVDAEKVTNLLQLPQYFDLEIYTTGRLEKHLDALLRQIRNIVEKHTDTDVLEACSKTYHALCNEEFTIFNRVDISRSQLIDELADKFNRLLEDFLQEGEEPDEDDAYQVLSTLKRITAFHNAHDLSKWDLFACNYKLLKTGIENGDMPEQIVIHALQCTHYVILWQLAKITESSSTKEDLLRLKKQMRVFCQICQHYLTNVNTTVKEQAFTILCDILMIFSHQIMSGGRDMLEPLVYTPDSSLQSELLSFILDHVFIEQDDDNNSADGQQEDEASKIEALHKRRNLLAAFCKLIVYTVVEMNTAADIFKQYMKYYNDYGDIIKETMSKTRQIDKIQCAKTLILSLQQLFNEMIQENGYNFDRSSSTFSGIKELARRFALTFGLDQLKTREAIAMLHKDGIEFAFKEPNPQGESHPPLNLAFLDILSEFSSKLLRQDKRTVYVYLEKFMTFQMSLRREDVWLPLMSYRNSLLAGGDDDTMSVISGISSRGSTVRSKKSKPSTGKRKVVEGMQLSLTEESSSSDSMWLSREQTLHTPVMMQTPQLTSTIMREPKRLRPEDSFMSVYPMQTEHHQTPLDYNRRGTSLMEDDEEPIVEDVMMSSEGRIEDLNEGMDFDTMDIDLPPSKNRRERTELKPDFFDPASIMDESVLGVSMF
B3: Speckle-type POZ protein (Homo sapiens), O43791 (parent)
chain: B1 chain
partner: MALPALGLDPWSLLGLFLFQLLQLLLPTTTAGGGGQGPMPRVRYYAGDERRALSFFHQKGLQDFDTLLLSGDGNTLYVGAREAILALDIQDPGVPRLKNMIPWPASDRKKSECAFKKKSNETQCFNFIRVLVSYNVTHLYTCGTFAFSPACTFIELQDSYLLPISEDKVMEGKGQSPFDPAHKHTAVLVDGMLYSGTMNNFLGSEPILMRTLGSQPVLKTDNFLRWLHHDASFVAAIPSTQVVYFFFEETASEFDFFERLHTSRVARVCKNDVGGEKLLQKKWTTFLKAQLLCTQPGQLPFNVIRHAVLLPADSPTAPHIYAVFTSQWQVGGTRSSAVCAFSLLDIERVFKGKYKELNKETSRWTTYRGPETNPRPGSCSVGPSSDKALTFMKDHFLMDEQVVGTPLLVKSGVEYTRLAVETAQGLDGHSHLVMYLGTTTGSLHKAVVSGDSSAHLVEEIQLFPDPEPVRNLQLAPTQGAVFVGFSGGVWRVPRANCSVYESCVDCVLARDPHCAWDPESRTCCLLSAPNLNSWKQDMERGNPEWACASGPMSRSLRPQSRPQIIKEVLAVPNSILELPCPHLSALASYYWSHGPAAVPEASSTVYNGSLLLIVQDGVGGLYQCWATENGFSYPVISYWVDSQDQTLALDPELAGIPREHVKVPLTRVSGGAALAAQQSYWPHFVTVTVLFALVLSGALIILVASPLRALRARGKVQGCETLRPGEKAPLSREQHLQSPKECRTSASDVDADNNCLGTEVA
B4: Speckle-type POZ protein (Homo sapiens), O43791 (parent)
chain: B1 chain
partner: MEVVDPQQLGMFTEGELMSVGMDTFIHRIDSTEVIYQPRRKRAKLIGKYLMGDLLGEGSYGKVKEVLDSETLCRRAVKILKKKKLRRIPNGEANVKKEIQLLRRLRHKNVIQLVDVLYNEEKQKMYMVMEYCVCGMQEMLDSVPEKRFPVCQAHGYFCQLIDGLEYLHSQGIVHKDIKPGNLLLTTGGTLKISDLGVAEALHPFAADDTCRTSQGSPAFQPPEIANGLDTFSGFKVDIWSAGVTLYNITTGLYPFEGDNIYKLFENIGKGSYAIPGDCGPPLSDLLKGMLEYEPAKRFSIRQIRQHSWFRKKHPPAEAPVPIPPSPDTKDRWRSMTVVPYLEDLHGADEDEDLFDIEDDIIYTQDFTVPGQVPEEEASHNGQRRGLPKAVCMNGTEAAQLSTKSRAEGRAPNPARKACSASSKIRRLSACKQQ
B5: Speckle-type POZ protein (Homo sapiens), O43791 (parent)
chain: B1 chain
partner: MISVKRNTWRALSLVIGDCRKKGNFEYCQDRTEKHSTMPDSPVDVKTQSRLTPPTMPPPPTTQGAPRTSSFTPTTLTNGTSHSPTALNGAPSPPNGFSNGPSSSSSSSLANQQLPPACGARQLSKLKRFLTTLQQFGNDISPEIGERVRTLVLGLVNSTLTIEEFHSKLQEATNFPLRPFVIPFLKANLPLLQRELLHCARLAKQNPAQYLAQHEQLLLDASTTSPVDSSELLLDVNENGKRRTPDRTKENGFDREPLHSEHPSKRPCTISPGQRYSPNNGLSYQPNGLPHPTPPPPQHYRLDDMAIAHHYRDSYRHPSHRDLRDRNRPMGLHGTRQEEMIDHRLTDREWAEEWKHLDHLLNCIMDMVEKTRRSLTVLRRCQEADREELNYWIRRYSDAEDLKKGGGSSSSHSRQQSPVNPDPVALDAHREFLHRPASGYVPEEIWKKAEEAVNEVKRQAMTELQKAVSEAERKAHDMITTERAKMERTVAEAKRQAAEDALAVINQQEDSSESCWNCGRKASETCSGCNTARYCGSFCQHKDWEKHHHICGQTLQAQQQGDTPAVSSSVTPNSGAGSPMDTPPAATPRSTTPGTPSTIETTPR
B6: Speckle-type POZ protein (Homo sapiens), O43791 (parent)
chain: B1 chain
partner: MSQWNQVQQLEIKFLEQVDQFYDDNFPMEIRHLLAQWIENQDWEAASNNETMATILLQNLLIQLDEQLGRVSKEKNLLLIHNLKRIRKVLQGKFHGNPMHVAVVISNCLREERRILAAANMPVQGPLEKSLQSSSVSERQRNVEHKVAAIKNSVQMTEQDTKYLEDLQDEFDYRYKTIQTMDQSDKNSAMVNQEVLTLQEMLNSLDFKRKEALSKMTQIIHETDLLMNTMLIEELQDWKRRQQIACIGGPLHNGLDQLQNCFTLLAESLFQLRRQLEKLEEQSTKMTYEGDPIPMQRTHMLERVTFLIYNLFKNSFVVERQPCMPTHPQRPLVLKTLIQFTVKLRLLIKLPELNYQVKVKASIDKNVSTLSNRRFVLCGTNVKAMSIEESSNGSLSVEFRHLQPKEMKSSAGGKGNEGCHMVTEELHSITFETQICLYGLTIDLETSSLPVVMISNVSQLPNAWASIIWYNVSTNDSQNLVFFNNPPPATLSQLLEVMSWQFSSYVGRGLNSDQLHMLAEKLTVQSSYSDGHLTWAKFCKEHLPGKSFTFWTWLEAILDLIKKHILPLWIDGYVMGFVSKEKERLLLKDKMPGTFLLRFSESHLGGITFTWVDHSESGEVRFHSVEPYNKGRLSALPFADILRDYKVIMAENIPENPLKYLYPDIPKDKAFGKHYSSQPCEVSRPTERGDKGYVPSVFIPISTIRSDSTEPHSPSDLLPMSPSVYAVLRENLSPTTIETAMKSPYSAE

Variants of: B1
Details: with sir4_human SIRT4, Q9Y6E7

effect of a mutation on the interaction | Variant
with no effect | F102C

Variants of: B2
Details: with stag2_human STAG2, Q8N3U4

effect of a mutation on the interaction | Variant
with no effect | F102C

Variants of: B2
Details: with stag2_human STAG2, Q8N3U4
Remark: another data set of the same source

effect of a mutation on the interaction | Variant
with no effect | Y87C

Variants of: B2
Details: with stag2_human STAG2, Q8N3U4
Remark: another data set of the same source

effect of a mutation on the interaction | Variant
with no effect | F133L

Variants of: B2
Details: with stag2_human STAG2, Q8N3U4
Remark: another data set of the same source

effect of a mutation on the interaction | Variant
with no effect | F133V

Variants of: B3
Details: with sem4a_human SEMA4A

effect of a mutation on the interaction | Variant
with no effect | F102C

Variants of: B3
Details: with sem4a_human SEMA4A
Remark: another data set of the same source

effect of a mutation on the interaction | Variant
with no effect | Y87C

Variants of: B3
Details: with sem4a_human SEMA4A
Remark: another data set of the same source

effect of a mutation on the interaction | Variant
with no effect | F133L

Variants of: B3
Details: with sem4a_human SEMA4A
Remark: another data set of the same source

effect of a mutation on the interaction | Variant
with no effect | F133V

Variants of: B4
Details: with stk11_human STK11, Q15831

effect of a mutation on the interaction | Variant
with no effect | F102C

Variants of: B4
Details: with stk11_human STK11, Q15831
Remark: another data set of the same source

effect of a mutation on the interaction | Variant
with no effect | F133V

Variants of: B4
Details: with stk11_human STK11, Q15831
Remark: another data set of the same source

effect of a mutation on the interaction | Variant
with no effect | F133L

Variants of: B4
Details: with stk11_human STK11, Q15831
Remark: another data set of the same source

effect of a mutation on the interaction | Variant
with no effect | Y87C

Variants of: B5
Details: with mtg8_human RUNX1T1, Q06455

effect of a mutation on the interaction | Variant
with no effect | Y87C

Variants of: B5
Details: with mtg8_human RUNX1T1, Q06455
Remark: another data set of the same source

Variant | effect of a mutation on the interaction
Y87C | disrupting interaction strength
F102C | disrupting interaction strength

Continued, values first:

effect of a mutation on the interaction | Variant
disrupting interaction strength | F133L
disrupting interaction strength | F133V

Variants of: B5
Details: with mtg8_human RUNX1T1, Q06455
Remark: another data set of the same source

effect of a mutation on the interaction | Variant
with no effect | F133L

Variants of: B5
Details: with mtg8_human RUNX1T1, Q06455
Remark: another data set of the same source

effect of a mutation on the interaction | Variant
with no effect | F133V

Variants of: B5
Details: with mtg8_human RUNX1T1, Q06455
Remark: another data set of the same source

effect of a mutation on the interaction | Variant
with no effect | F102C

Variants of: B6
Details: with stat4_human STAT4, Q14765

effect of a mutation on the interaction | Variant
with no effect | F133L

Variants of: B6
Details: with stat4_human STAT4, Q14765
Remark: another data set of the same source

effect of a mutation on the interaction | Variant
with no effect | F133V
